One protein from publication PMC11696373 (Nature Communications, 2025) can be followed below.

The stoichiometry N is a count of units in the complex or per binding partner.

The data set deals with the molecule itself. In words: cryo-EM structure.

B1: human XPR1 (natural protein)
chain: MKFAEHLSAHITPEWRKQYIQYEAFKDMLYSAQDQAPSVEVTDEDTVKRYFAKFEEKFFQTCEKELAKINTFYSEKLAEAQRRFATLQNELQSSLDAQKESTGVTTLRQRRKPVFHLSHEERVQHRNIKDLKLAFSEFYLSLILLQNYQNLNFTGFRKILKKHDKILETSRGADWRVAHVEVAPFYTCKKINQLISETEAVVTNELEDGDRQKAMKRLRVPPLGAAQPAPAWTTFRVGLFCGIFIVLNITLVLAAVFKLETDRSIWPLIRIYRGGFLLIEFLFLLGINTYGWRQAGVNHVLIFELNPRSNLSHQHLFEIAGFLGILWCLSLLACFFAPISVIPTYVYPLALYGFMVFFLINPTKTFYYKSRFWLLKLLFRVFTAPFHKVGFADFWLADQLNSLSVILMDLEYMICFYSLELKWDESKGLLPNNSEESGICHKYTYGVRAIVQCIPAWLRFIQCLRRYRDTKRAFPHLVNAGKYSTTFFMVTFAALYSTHKERGHSDTMVFFYLWIVFYIISSCYTLIWDLKMDWGLFDKNAGENTFLREEIVYPQKAYYYCAIIEDVILRFAWTIQISITSTTLLPHSGDIIATVFAPLEVFRRFVWNFFRLENEHLNNCGEFRAVRDISVAPLNADDQTLLEQMMDQDDGVRNRQKNRSWKYNQSISLRRPRLASQSKARDTKVLIEDTDDEANT
Turning to B1, the “stoichiometry N” value came to 2.
